The target in assay [1] is T1, human angiopoietin-2 protein (Homo sapiens, UniProt O15123).
T1 construct: purchased R&D Systems
T1 sequence (O15123 19-496): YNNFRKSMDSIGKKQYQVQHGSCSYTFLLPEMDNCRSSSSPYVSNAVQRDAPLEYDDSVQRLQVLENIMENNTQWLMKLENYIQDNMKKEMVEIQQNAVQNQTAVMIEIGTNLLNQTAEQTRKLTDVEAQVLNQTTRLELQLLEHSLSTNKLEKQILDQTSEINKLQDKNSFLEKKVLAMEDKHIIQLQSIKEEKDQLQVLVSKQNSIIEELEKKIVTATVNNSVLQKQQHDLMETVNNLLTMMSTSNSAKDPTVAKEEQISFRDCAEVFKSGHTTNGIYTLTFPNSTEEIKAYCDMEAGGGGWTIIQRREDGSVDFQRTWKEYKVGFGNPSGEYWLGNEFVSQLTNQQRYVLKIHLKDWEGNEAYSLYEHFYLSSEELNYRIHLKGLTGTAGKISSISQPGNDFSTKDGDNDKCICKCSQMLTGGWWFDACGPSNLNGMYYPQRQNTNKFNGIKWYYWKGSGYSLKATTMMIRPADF
Kind of assay: Competitive ELISA: inhibition of Ang-2-Tie-2 binding, plates coated with Ang-2 (Table 7). As to the method: The ability of Ang-2 binding compounds to interact with Ang-2 was measured by competition with Tie-2.
For competitive ELISA, human angiopoietin-2 protein and Tie-2-Fc (R&D Systems) were reconstituted without carrier protein. Mouse anti-human Tie-2 (Pharmingen) was used as the primary antibody and goat anti-mouse-IgG1-HRP (Pierce) was used as the secondary antibody. TMB substrate from Pierce was used.
High-binding half-well plates were coated with Ang-2 (100 ng/well) in 50 μl PBS and incubated at 4° C. overnight. Plates were washed three times with washing buffer (0.1% Tween 20, PBS, pH 7.4) and blocked with Superblock (Scytek), 100 μl/well at room temperature (“RT”) for 1 hour. After removing the blocking solution, 50 μl of an Ang-2 binding peptide compound (1 uM and 5× serial dilution) in the presence of 0.25 nM hTie-2-Fc using Superblock as diluent was added and incubated at RT for 2 hours. Plates were washed 3 times with washing buffer. Then, 50 ul of 0.1 ug/ml mouse anti-human Tie-2 diluted in Superblock added and incubated at RT for 1 hour. Following incubation, 50 ul of 1:5,000 dilution of goat anti-mouse IgG-HRP in Superblock was then added and incubated at RT for one hour. After washing 3 times, 50 μl (25 μl TMB+25 μl H2O2) was added, and incubated for 3-5 minutes. Color development was monitored and stopped with 25 μl of 2 M H2SO4. OD450 nm with a correction wavelength of 540 nm was measured.
In Table 7, compounds of SEQ ID NOs: 21-23 are Ang-2 binding peptides alone, not conjugated to either a linker or linker-antibody; compounds of SEQ ID NOs:65 and 66 are Ang-2 binding peptides conjugated to a linker-antibody, where the linker is 4P (“4” PEG) and has the structure of the linker shown in FIG. 2; and compounds 26-63 are Ang-2 binding peptides conjugated to a linker-antibody, where the linker is OP (“O” PEG) and has the structure of the linker shown in FIG. 3. Compounds 24-63 were conjugated to humanized aldolase antibody h38c2 and the linker structures shown in FIG. 2 (4P) and FIG. 3 (OP) when obtainng the data shown below, except where otherwise indicated.
In Table 7, amino acid sequences of peptide compounds are shown with the position of linker OP or 4P indicated in parentheses following the internal amino acid residue to which the linker is attached. For compound of SEQ ID NO:67, the N-terminal “OP” linker is indicated at the beginning of the peptide sequence.

A further assay concerns the target T2, Recombinant human Ang-2 (Homo sapiens, UniProt O15123).
T2 sequence (O15123 19-496): T1 sequence (O15123 19-496)
Kind of assay: Truncation study: competition with compound 43 linked to linker and h38c2 for binding to coated Ang-2 (Table 9). The settings on record: competition with compound 43-linker-h38c2 at 10 ng/mL, read-out: Ang-2 T IC50. As for the experimental part: Recombinant human Ang-2 was coated on microtiter plates at 0.5 μg/mL in 100 μL, overnight at 2-8° C. Plates were washed between all steps and all subsequent incubations occurred at room temperature. Plates were blocked with 250 μL per well of SuperBlock for 1-3 hours. Test compounds were pre-mixed with compound 43 linked to linker (as shown in FIG. 3) and h38c2 at 10 ng/mL. Peptide mixtures in 100 μL were then added at the listed final concentrations, the plates sealed, and incubated for 1-2 hours. Bound compound 43 was detected with 100 μL of a 1:20,000 dilution of HRP-labeled anti-human IgG reagent for 1-2 hours. Finally, 100 μL TMB substrate was added for 10 minutes and the reaction stopped with 100 μL of 2 NH2SO4 stop solution.

A further assay has as its system Co10205 cells. Kind of assay: Xenograft studies: subcutaneous tumor growth in nude mice, % T/C (Table 10). The format is in vivo. As for the experimental part:
Co10205 cells were cultured with 10% FBS RPMI medium and 3×10^6 cells in 0.1 ml Hank's balanced salt solution (HBSS) were injected subcutaneously into the upper right flank of nude mice. After 7-9 days, animals were randomized into appropriate number of groups with average tumor size of 200-300 mm^3. Mice were then treated with the requisite amount of compounds of the invention and tumor volumes were measured twice a week. Animals were terminated once their average tumor volume reached 2000 mm^3. Upon termination, tumors were weighed and saved for further histological studies. Treatment efficacy was evaluated by measuring the difference in the tumor volumes of treated versus control groups. Results are reported as % T/C, where % T/C was calculated as: % T/C=(Vt−V0)/(Ct−C0)×100, where, V0 and Vt were the average tumor volumes of treated groups at the beginning and termination of the group. CO and Ct were the average tumor volumes of the control group at the beginning and termination of the group (Table 10).

Assay [2] addresses T1, human angiopoietin-2 protein. Kind of assay: Reverse competition ELISA: inhibition of Ang-2-Tie-2 binding, plates coated with Tie-2-Fc (Table 8). The conditions noted are these: reverse competitive ELISA; peptide linked to antibody h38c2 via 0P linker. As to the method:
For reverse competition ELISA, human Tie-2-Fc, angiopoietin-2 protein, biotinylated anti-human Ang-2 antibody, and streptavidin HRP(R&D Systems) and TMB substrate from Pierce were used.
High-binding half-well plates were coated with Tie-2-Fc (50 ng/well) in 50 μl PBS and incubated at 4° C. overnight. Plates were washed three times with washing buffer (0.1% Tween 20, PBS, pH 7.4) and blocked with Superblock, 150 μl/well at RT for 1 hour. Plates were washed three times. Following washing, 50 μl of an Ang-2 binding peptide compound (50 nM, 5× serial dilution) in the presence of 50 ng/ml (0.83 nM) Ang-2 in Superblock were added and incubated at RT for 1 hour. Plates were washed 3 times, 50 μl of 1 μg/mlbiotinylated anti-Ang-2 detection antibody in Superblock was added and incubated at RT for 2 hours. Plates were washed 3 times, and 50 μl of streptavidin HRP (1:200 dilution in Superblock) was added at RT for 20 minutes. Plates were washed 3 times, and 50 μl (25 μl TMB+25 μl H2O2) substrate solution was added and incubated for 20-30 minutes. Color development was stopped with 25 μl of 2 M H2SO4. OD450 nm with a correction wavelength of 540 nm was measured.
IC50 values are provided for the targeting peptide plus linker (as shown in FIG. 3) and the targeting peptide linked to an antibody (P) via the linker of FIG. 3, unless otherwise specified.

Where [3] appears, read: P = targeting peptide linked to antibody h38c2 via the linker, read-out: Ang-2 P IC50.
[4] abbreviates: T = targeting peptide plus linker (compounds 21-23: peptide alone), read-out: Ang-2 T IC50.

pIC50: −log10 of the molar value. Starred links: 1 amine or outer side, 2 acyl side, 3 side chain; linkers in the order of their positions; H or OH if unused. Non-standard residues stand in square brackets, D forms with d. No end group written: not given here. Phe(4-COOH) = N[C@@H](Cc1ccc(C(=O)O)cc1)C(=O)O; AcK = CC(=O)NCCCC[C@H](N[*:1])C(=O)[*:2]; 0P = not defined here

Turning to “62 (Q[AcK]YQPLDE[AcK]DK(0P)TL[Phe(4-COOH)]DQFMLQQG; not fully specified (C-terminus); reading uncertain; also: 0P linker on K11, antibody h38c2 conjugate or reactive form) [Compound 62]”, the pIC50 in assay [1] (setting [3]) is 7.38.

Consider “90 (Ac-PLDEK(Ac)DK(0P)TLYDQFMLQQG-NH2; reading uncertain; also: 0P linker on K7, reactive end group for antibody) [Compound 90]”, for which the negative logarithm of the IC50 (pIC50) with Recombinant human Ang-2 was < 5.40.

Consider “QAcKY QPL DEL DK(4P)T LYD QFM LQQ G (QXYQPLDELDXTLYDQFMLQQG; not fully specified; acetyl-lysine; 4P PEG linker to antibody at K11; Anti-angiogenic peptide) [Compound 24, "the second amino acid residue is epsilon acyl lysine ... the linking position (in this case a 4P linker) is the lysine residue 11"]”, for which, in assay [1] (setting [3]), the pIC50 is 7.76.

For the substance “59 (QRYQPLDELDXTLYDQFMLQQG; K(0P) modified lysine; Anti-angiogenic peptide) [Compound 59]”, the pIC50 in assay [1] (setting [3]) was 7.79.

Regarding “88 (Ac-YQPLDE[AcK]DK(0P)TLYDQFMLQQG-NH2; reading uncertain; also: 0P linker on K9, reactive end group for antibody) [Compound 88]”, the pIC50 with Recombinant human Ang-2 is < 5.40.

As to “36 (QXYQPLDELDXTIYDQFMLQQG; AcK; K(0P) modified lysine; Anti-angiogenic peptide) [Compound 36]”, the pIC50 in assay [1] (setting [3]) is 6.82.

Regarding “R^1-QNY QPL DEL DKT LYD QFM LQQ G-R^2 (QNYQPLDELDKTLYDQFMLQQG; also: variable termini R1, R2) [Compound 28]”, the values for the pIC50 in assay [1] (setting [3]), in assay [1] (setting [4]) and in assay [2] were 7.54, 6.76 and 9.82, respectively. For the same substance, the “% TC 3 mg/kg 1×/wk” value in the assay on Co10205 cells (3 mg/kg 1×/wk) came to 34%. Also, in the assay on Co10205 cells (10 mg/kg 1×/wk), the “% TC 10 mg/kg 1×/wk” value was determined as 38%.

On to “60 (QHYQPLDELDXTLYDQFMLQQG; not fully specified; K(0P) modified lysine; Anti-angiogenic peptide) [Compound 60]”, for which the pIC50 in assay [1] (setting [3]) was 7.84.

In the case of “38 (QXYQPLDELDXTXYDQFMLQQG; not fully specified; AcK; K(0P); homocyclohexylalanine; Anti-angiogenic peptide) [Compound 38]”, the figures for the pIC50 in assay [1] (setting [3]) and in assay [1] (setting [4]) were 6.15 and < 5.30, respectively.

For “35 (QXYQXLDELDXTLYDQFMLQQG; AcK; hydroxyproline; K(0P); Anti-angiogenic peptide) [Compound 35]”, the pIC50 in assay [1] (setting [3]) is 7.78.

“31 (Q[AcK]YQPLDELDETK(0P)YDQFMLQQG; reading uncertain; also: printed as Q(AcK)Y QPL DEL DET K(0P)YD QFM LQQ G) [Compound 31]”: the pIC50 in assay [1] (setting [3]) is < 6.00; in assay [1] (setting [4]) it was < 5.30.

In the case of “40 (QXYQPLDELDXTXYDQFMLQQG; AcK; K(0P); thienylalanine; Anti-angiogenic peptide) [Compound 40]”, the pIC50 was 6.45 in assay [1] (setting [3]) and < 5.30 in assay [1] (setting [4]).

As to “89 (Ac-QPLDE[AcK]DK(0P)TLYDQFMLQQG-NH2; reading uncertain; also: 0P linker on K8, reactive end group for antibody) [Compound 89]”, in the assay with Recombinant human Ang-2, the pIC50 is < 5.40.

Consider “39 (QXYQPLDELDXTXYDQFMLQQG; AcK; K(0P); homophenylalanine; Anti-angiogenic peptide) [Compound 39]”, for which the negative logarithm of the IC50 (pIC50) in assay [1] (setting [3]) was 6.59.

As for “37 (QXYQPLDEIDXTLYDQFMLQQG; AcK; K(0P) modified lysine; Anti-angiogenic peptide) [Compound 37]”, the pIC50 in assay [1] (setting [3]) was 7.10.

On to “(Amido 2-PEG)QAcKY QPL DEL DK(OP)T LYD QFMLQQ G (QXYQPLDELDXTLYDQFMLQQG; amido-2-PEG cap; acetyl-lysine; OP linker at K11; Anti-angiogenic peptide) [Compound 52]”, for which the pIC50 in assay [1] (setting [3]) is 7.74.

On to “33 (Q[AcK]YQPLDEK(0P)DETLYDQFMLQQG; reading uncertain) [Compound 33]”, for which the pIC50 in assay [1] (setting [3]) was 7.05.

For the substance “87 (Ac-[AcK]YQPLDE[AcK]DK(0P)TLYDQFMLQQG-NH2; reading uncertain; also: 0P linker on K10, reactive end group for antibody) [Compound 87]”, the pIC50 with Recombinant human Ang-2 was < 5.40.

“25: "compounds of SEQ ID NOs:65 and 66 are Ang-2 binding peptides conjugated to a linker-antibody, where the linker is 4P (“4” PEG)" (QNYQPLDELDXTLYDQFMLQQG; 4P PEG linker conjugated to antibody; Anti-angiogenic peptide) [Compound 25]”: the pIC50 in assay [1] (setting [3]) was 7.39.

For the origin of these results see patent publication US8912148B2, “Methods of treating a disease or condition associated with abnormal angiogenesis” (Covx Technology Ireland, Ltd., priority 2006, dated 2014).
